20 variants from the RNAGym collection of RNA variant scans (doi:10.7554/elife.90254) can be followed below.

B1: LINE1-full (parent)
chain: UACGUAGGUGGUUUUCCCCUGAUAGUGCUAAGGGGGCCUGGAAGUUUGGACUGGGCAGAGCUCAACACAGCGUGGCAAAGUGGCUGUGGCUAGACUGCCUCUCUGGAUUCCUCGUCACUCAGCAGGGCAUCUCUGAGAGAAAUGCC

Variants of B1 are the subject of this data set. The experiment in a line: self-cleavage, relative activity (ratio to wild type); higher = more cleavage; in vitro, sequencing; the parent is a self-cleaving ribozyme.
As to UACGUAGGUGGUUUUCCCCUGAUAGUGCUAAGGGGGCCUGGAAGUUUGGACUGGGCAGAGCUCAACACAGCGUAGCAAAGUGGCUGUGGCUAGACUGCCUCUCUGGAUUCCUCGUCCCUCAGCAGGGCAUCUCUGAGAGAAAUGCC, the self-cleavage stood at 1.63.

For UACGUAGGUGGUUUUCCCCUGAUAGUGCUAAGGGGGCCUGGAAGUUUGGACUGGGCAGAGCUCAACACAGCGGGGCAAAGUGGCUGUGGCCAGACUGCCUCUCUGGAUUCCUCGUCACUCAGCAGGGCAUCUCUGAGAGAAAUGCC, the self-cleavage is 0.29.

Turning to UACGUAGGUGGUUUUCCCCUGAUAGUGCUAAGGGGGCCUGGAAGUUUGGACUGGGCAGAGCUCAACACAGCGGGGCAAAGUGGCUGUGGCUAGACUGCCUCUCUGGAUUCCUCGUCACUCAGCAGGGCAUCUCUGUGAGAAAUGCC, the self-cleavage was determined as 0.81.

Take UACGUAGGUGGUUUUCCCCUGAUAGUGCUAAGGGGGCCUGGAAGUUUGGACUGGGCAGAGCUCAACACAGCGGGGCAAAGUGGCUGUGGCUAGACUGCCUCUCUGGAUUCCUCGUCACUCAGCAGGGCAUCUCAGAGAGAAAUGCC: the self-cleavage was found to be 0.88.

For UACGUAGGUGGUUUUCCCCUGAUAGUGCUAAGGGGGCCUGGAAGUUUGGACUGGGCAGAGCUCAACACAGCGUAGCAAUGUGGCUGUGGCUAGACUGCCUCUCUGGAUUCCUCGUCACUCAGCAGGGCAUCUCUGAGAGAAAUGCC, the self-cleavage stood at 2.06.

For UACGUAGGUGGUUUUCCCCUGAUAGUGCUAAGGGGGCCUGGAAGUUUGGACUGGGCAGAGCUCAACACAGCGUAGCAAGGUGGCUGUGGCUAGACUGCCUCUCUGGAUUCCUCGUCACUCAGCAGGGCAUCUCUGAGAGAAAUGCC, the self-cleavage stood at 0.8.

On to UACGUAGGUGGUUUUCCCCUGAUAGUGCUAAGGGGGCCUGGAAGUUUGGACUGGGCAGAGCUCAACACAGCGUAGCAAAGUGGCUGUGGCUAGACUGCCUCUCUGGAUUCCUCGUCACUCGGCAGGGCAUCUCUGAGAGAAAUGCC, for which the self-cleavage is 1.43.

Take UACGUAGGUGGUUUUCCCCUGAUAGUGCUAAGGGGGCCUGGAAGUUUGGACUGGGCAGAGCUCAACACAGCGUAGCAAAGUGGCUGUGGCUAGUCUGCCUCUCUGGAUUCCUCGUCACUCAGCAGGGCAUCUCUGAGAGAAAUGCC: the self-cleavage amounted to 0.17.

As to UACGUAGGUGGUUUUCCCCUGAUAGUGCUAAGGGGGCCUGGAAGUUUGGACUGGGCAGAGCUCAACACAGCGGGGCAAAGUGGCUGUGGCUAGACUGCCUCUCUGGAUUCCUCGCCACUCAGCAGGGCAUCUCUGAGAGAAAUGCC, the self-cleavage worked out at 2.26.

Regarding UACGUAGGUGGUUUUCCCCUGAUAGUGCUAAGGGGGCCUGGAAGUUUGGACUGGGCAGAGCUCAACACAGCGGGGCAAAGUGGUUGUGGCUAGACUGCCUCUCUGGAUUCCUCGUCACUCAGCAGGGCAUCUCUGAGAGAAAUGCC, the self-cleavage stood at 0.17.

Regarding UACGUAGGUGGUUUUCCCCUGAUAGUGCUAAGGGGGCCUGGAAGUUUGGACUGGGCAGAGCUCAACACAGCGGGGCAAAGUGGCUGUGGCUAGACUGCCUCUCUGGAUUCCUCGUCACUCAGCAGGGCAUCUCUGAGAGAAGUGCC, the self-cleavage stood at 1.2.

As for UACGUAGGUGGUUUUCCCCUGAUAGUGCUAAGGGGGCCUGGAAGUUUGGACUGGGCAGAGCUCAACACAGCGGGGCAAAGUGGCUGUGGCUAGACUGCCUCUCUGGAUUCCUCGUCACUCAGCAGGGCACCUCUGAGAGAAAUGCC, the self-cleavage stood at 2.25.

Consider UACGUAGGUGGUUUUCCCCUGAUAGUGCUAAGGGGGCCUGGAAGUUUGGACUGGGCAGAGCUCAACACAGCGUAGCAAAGUGGCUGUGGCUAGACUGCCUCUCUGGAUUCCUCGUCACUCAGCAGGGCGUCUCUGAGAGAAAUGCC, for which the self-cleavage worked out at 1.53.

For the variant UACGUAGGUGGUUUUCCCCUGAUAGUGCUAAGGGGGCCUGGAAGUUUGGACUGGGCAGAGCUCAACACAGCGGGGCAAAGUGGCUGUGGCUAGACUGCCUCUCUGGAUUCCUCGUCACUCAGCAGGGCAUCCCUGAGAGAAAUGCC, the self-cleavage was 1.58.

In the case of UACGUAGGUGGUUUUCCCCUGAUAGUGCUAAGGGGGCCUGGAAGUUUGGACUGGGCAGAGCUCAACACAGCGGGGCAAAGUGGCGGUGGCUAGACUGCCUCUCUGGAUUCCUCGUCACUCAGCAGGGCAUCUCUGAGAGAAAUGCC, the self-cleavage was 0.06.

For UACGUAGGUGGUUUUCCCCUGAUAGUGCUAAGGGGGCCUGGAAGUUUGGACUGGGCAGAGCUCAACACAGCGUAGCAAAGUGGCUGUGGCUAGACUGCCUCUCUGGAUUCCUCGUCACUCAGCCGGGCAUCUCUGAGAGAAAUGCC, the self-cleavage was found to be 1.58.

Consider UACGUAGGUGGUUUUCCCCUGAUAGUGCUAAGGGGGCCUGGAAGUUUGGACUGGGCAGAGCUCAACACAGCGUAGCAAAGUGGCUGUGGCUAGACUGCCUCUCUGGAUUCCUCGUCACUCAGCGGGGCAUCUCUGAGAGAAAUGCC, for which the self-cleavage worked out at 0.51.

Turning to UACGUAGGUGGUUUUCCCCUGAUAGUGCUAAGGGGGCCUGGAAGUUUGGACUGGGCAGAGCUCAACACAGCGGGGCAAAGUGGCUGUGGCUAGACUGCCUCUCUGGAUUCCUCGUCACUCAGCUGGGCAUCUCUGAGAGAAAUGCC, the self-cleavage came to 1.36.

On to UACGUAGGUGGUUUUCCCCUGAUAGUGCUAAGGGGGCCUGGAAGUUUGGACUGGGCAGAGCUCAACACAGCGUAGCAAAGUGGCUGUGGCUUGACUGCCUCUCUGGAUUCCUCGUCACUCAGCAGGGCAUCUCUGAGAGAAAUGCC, for which the self-cleavage turned out to be 0.1.

On to UACGUAGGUGGUUUUCCCCUGAUAGUGCUAAGGGGGCCUGGAAGUUUGGACUGGGCAGAGCUCAACACAGCGGGGCAAAGUGGCUGAGGCUAGACUGCCUCUCUGGAUUCCUCGUCACUCAGCAGGGCAUCUCUGAGAGAAAUGCC, for which the self-cleavage is 0.03.
